Here are results for 14 molecules from US20190040131A1 (published 2019).

In test [1] the target is T1, human CD33 (human, UniProt P20138 18-259, limits assumed).
T1 construct: Human CD33 immobilized on the BLI sensor tip or the BIAcore C1 chip; also called Siglec-3
Nature of the test: BLI (ForteBio), CD33 on tip, Fab 100 nM. As for the experimental part: (§1) The affinities (KD) of the humanized antibodies for human CD33 were measured for each antibody by BioLayer Interferometry in a ForteBio assay according to standard techniques (Estep et al. (2013) MAbs 5(2): 270-8). […] The assay was carried out at room temperature.
(§2) The affinities of AB-H14 and its affinity-matured variants (Table 15) and AB-H63 and its affinity-matured variants (Table 16), for human CD33 were measured by Fortebio assay according to the method described in Example 1 above.
On the technique in general: Biolayer interferometry detects binding as a change in optical thickness at a sensor tip.

The target of test [2] is T1, human CD33. The experiment in a line: BLI (ForteBio), Fab; column looks row-shifted against KD. As for the experimental part: as §1, §2

Substitutions are numbered along the chain they refer to.

T1 sequence (P20138 18-259 limits assumed): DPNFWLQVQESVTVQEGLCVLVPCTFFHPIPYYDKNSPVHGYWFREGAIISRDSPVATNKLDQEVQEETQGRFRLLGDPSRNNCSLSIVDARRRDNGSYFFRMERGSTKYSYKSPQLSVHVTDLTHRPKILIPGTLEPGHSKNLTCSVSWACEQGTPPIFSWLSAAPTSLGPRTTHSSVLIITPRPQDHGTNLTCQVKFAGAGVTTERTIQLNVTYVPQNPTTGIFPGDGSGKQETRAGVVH

B1: AB-14.1 (antibody, V domains shown)
VH: QVQLVQSGAEVKKPGASVKVSCKASGATFTDYNFHWVRQAPGQGLEWIGFIYPSNGITGYAQDFQGRVTMTVDTSTSTVYMELSSLRSEDTAVYYCARSDVDYFDYWGQGTLVTVSS
VL: DIQMTQSPSSLSASVGDRVTITCRASQSVSTSTYSYMHWYQQKPGKAPKLLIKYASNLESGVPSRFSGSGSGTDFTLTISSLQPEDFATYYCQHSWEIPLTFGQGTKLEIK
A word on the Kd: it is the equilibrium constant for the complex coming apart. Broadly, the koff is a measure of how fast the partners let go of each other. Turning to B1, in the test with human CD33 [1], the affinity, expressed as Kd, was 0.299 nM and the koff came to 0.0002 s⁻¹.

B2: AB-63.6 (antibody, V domains shown)
VH: B1 VH with A27Y, F34L, D63K, D100T
VL: DIVLTQSPDSLAVSLGERATINCRASQDVSTSTYSYMHWYQQKPGQPPKLLIKYASNLESGVPDRFSGSGSGTDFTLTISSLQAEDVAVYYCQHSWEIPLTFGQGTKLEIK
Broadly, the kon is the rate constant with which the complex forms. As for B2, in the test with human CD33 [2], the koff was 0.00176 s⁻¹ and the kon came out at 679000 M⁻¹ s⁻¹.

B3: AB-63.4 (antibody, V domains shown)
VH: B1 VH with A27Y, F34Y, D63K, D100T
VL: B2 VL with D28S
Regarding B3, in the test with human CD33 [2], the koff amounted to 0.00112 s⁻¹ and the kon was 602000 M⁻¹ s⁻¹.

B4: AB-63.15 (antibody, V domains shown)
VH: B1 VH with A27Y, F34Y, D63K, Y106L
VL: B2 VL with L58V, K111E
B4: in the test with human CD33 [2], the koff was determined as 0.0002 s⁻¹ and the kon came out at 723000 M⁻¹ s⁻¹.

B5: AB-63.5 (antibody, V domains shown)
VH: B1 VH with A27Y, F34N, D63K
VL: B2 VL with D28S
Regarding B5, in the test with human CD33 [2], the koff turned out to be 0.00155 s⁻¹ and the kon was 776000 M⁻¹ s⁻¹.

B6: AB-63.8 (antibody, V domains shown)
VH: B1 VH with A16S, A27V, F34Y, D63K, G66D, D100T
VL: B2 VL
For B6, in the test with human CD33 [2], the koff was found to be 0.000524 s⁻¹ and the kon worked out at 847000 M⁻¹ s⁻¹.

B7: AB-63.9 (antibody, V domains shown)
VH: B1 VH with A27Y, T28A, F34L, D63K
VL: B2 VL with N57Y, Q93E
For B7, in the test with human CD33 [2], the kon was 658000 M⁻¹ s⁻¹.

B8: AB-63.12 (antibody, V domains shown)
VH: B1 VH with A27Y, D63K, Q65T, D100T, Y106D
VL: B2 VL with L58V, E97A
As for B8, the kon in the test with human CD33 [2] is 738000 M⁻¹ s⁻¹.

B9: AB-63.14 (antibody, V domains shown)
VH: B1 VH with A16S, A27Y, F34L, D63K
VL: B2 VL with N22D, R24K
B9: in the test with human CD33 [2], the koff amounted to 0.000322 s⁻¹ and the kon was found to be 839000 M⁻¹ s⁻¹.

B10: AB-63.11 (antibody, V domains shown)
VH: B1 VH with A27Y, S54A, D63K, F64D
VL: B2 VL
On to B10, for which, in the test with human CD33 [2], the koff worked out at 0.0002 s⁻¹ and the kon is 913000 M⁻¹ s⁻¹.

B11: AB-63.10 (antibody, V domains shown)
VH: B1 VH with A27Y, F29E, F34L, D63K
VL: B2 VL with I98L
With B11, in the test with human CD33 [2], the koff came out at 0.000546 s⁻¹ and the association rate constant (kon) was determined as 596000 M⁻¹ s⁻¹.

B12: AB-63.18 (antibody, V domains shown)
VH: B1 VH with A16S, A27Y, F29H, F34L, D63K
VL: B2 VL with D28S, A55E
For the molecule B12, in the test with human CD33 [2], the koff was determined as 0.000204 s⁻¹ and the kon is 903000 M⁻¹ s⁻¹.

B13: AB-63.7 (antibody, V domains shown)
VH: B1 VH with A27Y, F34L, D63K, D100T
VL: B2 VL with S56F, T101E
On to B13, for which, in the test with human CD33 [2], the koff is 0.000581 s⁻¹ and the kon was determined as 809000 M⁻¹ s⁻¹.

B14: AB-63.13 (antibody, V domains shown)
VH: B1 VH with A27Y, F34L, T58R, D63K
VL: B2 VL with D28S, W96E
With B14, in the test with human CD33 [2], the koff was 0.000336 s⁻¹ and the kon was 721000 M⁻¹ s⁻¹.
